Experimental data reported in IntAct's records for PubMed 31515488.

B1: Centrin-1 (Homo sapiens), Q12798 (parent)
chain: MASGFKKPSAASTGQKRKVAPKPELTEDQKQEVREAFDLFDVDGSGTIDAKELKVAMRALGFEPRKEEMKKMISEVDREGTGKISFNDFLAVMTQKMSEKDTKEEILKAFRLFDDDETGKISFKNLKRVANELGENLTDEELQEMIDEADRDGDGEVNEEEFLRIMKKTSLY
partner: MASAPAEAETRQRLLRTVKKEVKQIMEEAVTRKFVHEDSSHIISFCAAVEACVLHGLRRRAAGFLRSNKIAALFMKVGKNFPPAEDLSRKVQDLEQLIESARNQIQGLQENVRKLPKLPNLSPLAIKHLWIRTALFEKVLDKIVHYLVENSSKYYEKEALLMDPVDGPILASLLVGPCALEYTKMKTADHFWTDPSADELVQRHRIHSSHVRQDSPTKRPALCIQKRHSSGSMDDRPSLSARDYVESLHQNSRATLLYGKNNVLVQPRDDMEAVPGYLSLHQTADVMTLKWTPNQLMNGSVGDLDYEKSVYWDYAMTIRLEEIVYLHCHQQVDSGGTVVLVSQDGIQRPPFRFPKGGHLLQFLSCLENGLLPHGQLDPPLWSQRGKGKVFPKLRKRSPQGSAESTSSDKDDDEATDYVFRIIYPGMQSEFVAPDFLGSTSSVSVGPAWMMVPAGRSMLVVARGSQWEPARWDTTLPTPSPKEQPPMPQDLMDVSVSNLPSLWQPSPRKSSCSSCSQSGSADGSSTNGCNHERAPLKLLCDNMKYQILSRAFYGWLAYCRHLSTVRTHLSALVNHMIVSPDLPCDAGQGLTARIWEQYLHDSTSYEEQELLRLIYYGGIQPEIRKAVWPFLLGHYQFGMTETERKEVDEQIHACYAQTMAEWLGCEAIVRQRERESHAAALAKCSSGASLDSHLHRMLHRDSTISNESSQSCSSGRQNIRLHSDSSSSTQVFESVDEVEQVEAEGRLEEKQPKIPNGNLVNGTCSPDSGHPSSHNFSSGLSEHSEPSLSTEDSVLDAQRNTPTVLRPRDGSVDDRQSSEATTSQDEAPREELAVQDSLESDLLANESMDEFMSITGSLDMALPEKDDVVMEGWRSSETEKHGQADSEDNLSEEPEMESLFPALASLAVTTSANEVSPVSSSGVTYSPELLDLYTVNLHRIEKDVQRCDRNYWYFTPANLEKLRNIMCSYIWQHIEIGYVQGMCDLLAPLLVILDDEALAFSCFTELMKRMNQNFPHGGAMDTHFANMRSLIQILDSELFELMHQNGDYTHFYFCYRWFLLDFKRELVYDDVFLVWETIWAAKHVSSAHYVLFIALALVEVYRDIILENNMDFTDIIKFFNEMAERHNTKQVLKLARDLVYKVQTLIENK
B2: Protein unc-45 homolog A (Homo sapiens), Q9H3U1 (parent)
chain: MTVSGPGTPEPRPATPGASSVEQLRKEGNELFKCGDYGGALAAYTQALGLDATPQDQAVLHRNRAACHLKLEDYDKAETEASKAIEKDGGDVKALYRRSQALEKLGRLDQAVLDLQRCVSLEPKNKVFQEALRNIGGQIQEKVRYMSSTDAKVEQMFQILLDPEEKGTEKKQKASQNLVVLAREDAGAEKIFRSNGVQLLQRLLDMGETDLMLAALRTLVGICSEHQSRTVATLSILGTRRVVSILGVESQAVSLAACHLLQVMFDALKEGVKKGFRGKEGAIIVDPARELKVLISNLLDLLTEVGVSGQGRDNALTLLIKAVPRKSLKDPNNSLTLWVIDQGLKKILEVGGSLQDPPGELAVTANSRMSASILLSKLFDDLKCDAERENFHRLCENYIKSWFEGQGLAGKLRAIQTVSCLLQGPCDAGNRALELSGVMESVIALCASEQEEEQLVAVEALIHAAGKAKRASFITANGVSLLKDLYKCSEKDSIRIRALVGLCKLGSAGGTDFSMKQFAEGSTLKLAKQCRKWLCNDQIDAGTRRWAVEGLAYLTFDADVKEEFVEDAAALKALFQLSRLEERSVLFAVASALVNCTNSYDYEEPDPKMVELAKYAKQHVPEQHPKDKPSFVRARVKKLLAAGVVSAMVCMVKTESPVLTSSCRELLSRVFLALVEEVEDRGTVVAQGGGRALIPLALEGTDVGQTKAAQALAKLTITSNPEMTFPGERIYEVVRPLVSLLHLNCSGLQNFEALMALTNLAGISERLRQKILKEKAVPMIEGYMFEEHEMIRRAATECMCNLAMSKEVQDLFEAQGNDRLKLLVLYSGEDDELLQRAAAGGLAMLTSMRPTLCSRIPQVTTHWLEILQALLLSSNQELQHRGAVVVLNMVEASREIASTLMESEMMEILSVLAKGDHSPVTRAAAACLDKAVEYGLIQPNQDGE
partner: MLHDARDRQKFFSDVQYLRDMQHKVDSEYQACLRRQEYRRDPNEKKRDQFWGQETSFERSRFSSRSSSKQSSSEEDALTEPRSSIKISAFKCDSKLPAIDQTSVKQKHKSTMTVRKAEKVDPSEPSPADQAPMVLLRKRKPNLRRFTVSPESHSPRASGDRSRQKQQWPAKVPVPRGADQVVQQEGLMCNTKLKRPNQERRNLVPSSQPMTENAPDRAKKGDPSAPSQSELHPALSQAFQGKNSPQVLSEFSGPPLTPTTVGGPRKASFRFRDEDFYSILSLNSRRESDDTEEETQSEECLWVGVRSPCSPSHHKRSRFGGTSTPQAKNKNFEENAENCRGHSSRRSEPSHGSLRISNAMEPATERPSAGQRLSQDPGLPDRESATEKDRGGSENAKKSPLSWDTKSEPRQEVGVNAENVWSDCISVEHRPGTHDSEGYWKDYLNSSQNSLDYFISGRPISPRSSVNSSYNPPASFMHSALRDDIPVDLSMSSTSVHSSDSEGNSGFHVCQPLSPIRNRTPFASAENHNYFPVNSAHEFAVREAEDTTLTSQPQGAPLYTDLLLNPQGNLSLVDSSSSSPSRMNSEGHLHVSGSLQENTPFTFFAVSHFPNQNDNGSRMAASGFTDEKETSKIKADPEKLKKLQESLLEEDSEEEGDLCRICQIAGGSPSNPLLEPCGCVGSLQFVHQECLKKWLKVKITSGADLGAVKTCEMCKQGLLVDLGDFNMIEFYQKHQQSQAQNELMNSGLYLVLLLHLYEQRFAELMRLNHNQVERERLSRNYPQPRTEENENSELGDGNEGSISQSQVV
B3: Protein LDOC1 (Homo sapiens), O95751 (parent)
chain: MVDELVLLLHALLMRHRALSIENSQLMEQLRLLVCERASLLRQVRPPSCPVPFPETFNGESSRLPEFIVQTASYMLVNENRFCNDAMKVAFLISLLTGEAEEWVVPYIEMDSPILGDYRAFLDEMKQCFGWDDDEDDDDEEEEDDY
partner: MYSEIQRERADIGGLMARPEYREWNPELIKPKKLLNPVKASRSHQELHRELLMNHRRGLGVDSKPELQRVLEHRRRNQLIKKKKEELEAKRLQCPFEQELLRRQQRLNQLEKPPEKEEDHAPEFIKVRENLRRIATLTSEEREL
B4: Nuclear protein AMMECR1 (Homo sapiens), Q9Y4X0 (parent)
chain: MAAGCCGVKKQKLSSSPPSGSGGGGGASSSSHCSGESQCRAGELGLGGAGTRLNGLGGLTGGGSGSGCTLSPPQGCGGGGGGIALSPPPSCGVGTLLSTPAAATSSSPSSSSAASSSSPGSRKMVVSAEMCCFCFDVLYCHLYGYQQPRTPRFTNEPYPLFVTWKIGRDKRLRGCIGTFSAMNLHSGLREYTLTSALKDSRFPPMTRDELPRLFCSVSLLTNFEDVCDYLDWEVGVHGIRIEFINEKGSKRTATYLPEVAKEQGWDHIQTIDSLLRKGGYKAPITNEFRKTIKLTRYRSEKMTLSYAEYLAHRQHHHFQNGIGHPLPPYNHYS
partner: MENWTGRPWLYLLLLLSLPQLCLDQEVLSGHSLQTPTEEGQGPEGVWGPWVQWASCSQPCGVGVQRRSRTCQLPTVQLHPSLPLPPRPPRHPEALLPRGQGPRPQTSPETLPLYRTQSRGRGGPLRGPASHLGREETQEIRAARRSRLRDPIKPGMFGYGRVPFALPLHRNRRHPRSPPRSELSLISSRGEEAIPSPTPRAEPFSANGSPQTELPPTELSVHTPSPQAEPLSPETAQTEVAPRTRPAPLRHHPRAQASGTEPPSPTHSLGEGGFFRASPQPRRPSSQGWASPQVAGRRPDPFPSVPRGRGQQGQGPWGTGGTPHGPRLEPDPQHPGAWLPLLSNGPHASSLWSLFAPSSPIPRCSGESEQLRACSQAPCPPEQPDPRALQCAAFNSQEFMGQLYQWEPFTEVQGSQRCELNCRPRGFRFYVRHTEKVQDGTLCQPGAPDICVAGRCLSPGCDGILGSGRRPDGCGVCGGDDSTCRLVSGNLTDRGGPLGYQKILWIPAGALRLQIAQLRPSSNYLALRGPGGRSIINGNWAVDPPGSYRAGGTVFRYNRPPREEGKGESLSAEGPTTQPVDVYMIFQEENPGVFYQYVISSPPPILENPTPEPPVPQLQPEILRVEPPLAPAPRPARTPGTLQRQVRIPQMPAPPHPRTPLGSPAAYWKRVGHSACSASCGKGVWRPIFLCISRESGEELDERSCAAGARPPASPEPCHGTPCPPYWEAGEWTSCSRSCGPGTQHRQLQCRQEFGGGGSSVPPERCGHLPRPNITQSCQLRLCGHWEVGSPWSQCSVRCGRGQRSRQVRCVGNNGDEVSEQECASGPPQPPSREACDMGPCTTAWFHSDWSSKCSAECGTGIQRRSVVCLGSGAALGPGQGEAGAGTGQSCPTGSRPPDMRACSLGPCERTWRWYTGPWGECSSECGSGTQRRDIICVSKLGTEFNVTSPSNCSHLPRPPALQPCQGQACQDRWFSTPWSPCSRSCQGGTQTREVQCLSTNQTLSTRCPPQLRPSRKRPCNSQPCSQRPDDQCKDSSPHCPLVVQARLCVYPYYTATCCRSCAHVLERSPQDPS
B5: PIH1 domain-containing protein 2 (Homo sapiens), Q8WWB5 (parent)
chain: METSSKGLLTQVTQFWNLLDDLAQSDPEGYEKFIQQQLKEGKQLCAAPEPQLCLQTRILKPKEKILFINLCQWTRIPAPQSTTHPVPLTVGKPEDTTEISDAYTVIDVAYNPDVLHAAEKDQVKKNQLIQMAMKCIEEKFQFTLSHSYHITKFRIKGSIQRMKQNLMGIQTDSIDLREKMRRELTLGQIRSSTMSNPDHFPQLLLPKDQVSGKAVCLIEEISSTEIQVEMKMPAYELKIVHDHSEKPLKIELKVELPGINSVSLCDLSVSEDDLLIEVSEKYRLHLNLPKLIDTEMTTAKFIKEKSTLIITMPLV

Variants of: B1
Conditions: with sgsm1_human SGSM1, Q2NKQ1

Row | effect of a mutation on the interaction | Variant
1 | with no effect | M72T

Variants of: B2
Conditions: with marha_human MARCHF10, Q8NA82

Row | effect of a mutation on the interaction | Variant
2 | with no effect | T796M

Variants of: B3
Conditions: with FAM107A

Row | effect of a mutation on the interaction | Variant
3 | disrupting interaction strength | L12H

Variants of: B4
Conditions: with atl4_human ADAMTSL4, Q6UY14

Row | effect of a mutation on the interaction | Variant
4 | with no effect | R207G

Variants of: B5
Conditions: with cenpr_human ITGB3BP

Row | effect of a mutation on the interaction | Variant
5 | with no effect | METSSKGLLTQVTQFWNLLDDLAQSDPEGYEKFIQQQLKEGKQLCAAPEPQLCLQTRILKPKEKILFINLCQWTRIPAPQSTTHPVPLTVGKPEDTTEISDAYTVIDVAYNPDVLHVAEKDQVKKNQLIQMAMKCIEEKFQFTLSHSYHITKFRIKGSIQRMKQNLMGIQTDSIDLREKMRRELTLGQIRSSTMSNPDHFPQLLLPKDQVSGKAVCLIEEISSTEIQVEMKMPAYELKIVHDHSEKPLKIELKVELPGINSVSLCDLSVSEDDLLIEVSEKYRLHLNLPKLIDTEMTTAKFIKEKSTLIITMPLV [A117V]

Variants of: B5
Conditions: with if2b3_human IGF2BP3, O00425
Chain of if2b3_human IGF2BP3, O00425 (O00425 whole entry): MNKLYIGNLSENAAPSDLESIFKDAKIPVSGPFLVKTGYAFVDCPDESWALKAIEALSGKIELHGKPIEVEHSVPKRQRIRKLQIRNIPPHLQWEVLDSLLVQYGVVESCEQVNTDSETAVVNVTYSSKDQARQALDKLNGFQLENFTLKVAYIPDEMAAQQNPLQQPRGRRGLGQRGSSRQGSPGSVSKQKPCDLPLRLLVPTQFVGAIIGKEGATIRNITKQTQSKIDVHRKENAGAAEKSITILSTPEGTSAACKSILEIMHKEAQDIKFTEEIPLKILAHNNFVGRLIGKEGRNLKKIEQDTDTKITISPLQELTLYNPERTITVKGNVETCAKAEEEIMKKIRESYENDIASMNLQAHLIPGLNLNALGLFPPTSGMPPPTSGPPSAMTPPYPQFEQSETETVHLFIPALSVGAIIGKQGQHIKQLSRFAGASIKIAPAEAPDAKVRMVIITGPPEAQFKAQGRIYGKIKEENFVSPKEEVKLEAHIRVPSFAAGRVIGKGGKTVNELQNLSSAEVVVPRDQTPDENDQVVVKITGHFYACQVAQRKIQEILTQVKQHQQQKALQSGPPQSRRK

Row | effect of a mutation on the interaction | Variant
6 | with no effect | METSSKGLLTQVTQFWNLLDDLAQSDPEGYEKFIQQQLKEGKQLCAAPEPQLCLQTRILKPKEKILFINLCQWTRIPAPQSTTHPVPLTVGKPEDTTEISDAYTVIDVAYNPDVLHVAEKDQVKKNQLIQMAMKCIEEKFQFTLSHSYHITKFRIKGSIQRMKQNLMGIQTDSIDLREKMRRELTLGQIRSSTMSNPDHFPQLLLPKDQVSGKAVCLIEEISSTEIQVEMKMPAYELKIVHDHSEKPLKIELKVELPGINSVSLCDLSVSEDDLLIEVSEKYRLHLNLPKLIDTEMTTAKFIKEKSTLIITMPLV [A117V]

Variants of: B5
Conditions: with if4a2_human EIF4A2, Q14240
Chain of if4a2_human EIF4A2, Q14240 (Q14240 whole entry): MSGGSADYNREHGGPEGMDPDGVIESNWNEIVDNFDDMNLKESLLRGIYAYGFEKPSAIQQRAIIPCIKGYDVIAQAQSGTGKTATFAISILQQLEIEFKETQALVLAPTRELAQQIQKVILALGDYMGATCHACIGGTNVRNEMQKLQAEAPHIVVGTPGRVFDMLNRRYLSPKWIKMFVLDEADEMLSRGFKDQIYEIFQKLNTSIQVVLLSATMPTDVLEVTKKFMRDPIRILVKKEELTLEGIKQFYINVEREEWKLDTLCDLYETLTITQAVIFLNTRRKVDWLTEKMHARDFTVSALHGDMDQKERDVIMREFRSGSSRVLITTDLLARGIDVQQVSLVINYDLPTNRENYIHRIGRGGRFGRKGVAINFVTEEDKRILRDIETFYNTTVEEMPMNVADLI

Row | effect of a mutation on the interaction | Variant
7 | with no effect | METSSKGLLTQVTQFWNLLDDLAQSDPEGYEKFIQQQLKEGKQLCAAPEPQLCLQTRILKPKEKILFINLCQWTRIPAPQSTTHPVPLTVGKPEDTTEISDAYTVIDVAYNPDVLHVAEKDQVKKNQLIQMAMKCIEEKFQFTLSHSYHITKFRIKGSIQRMKQNLMGIQTDSIDLREKMRRELTLGQIRSSTMSNPDHFPQLLLPKDQVSGKAVCLIEEISSTEIQVEMKMPAYELKIVHDHSEKPLKIELKVELPGINSVSLCDLSVSEDDLLIEVSEKYRLHLNLPKLIDTEMTTAKFIKEKSTLIITMPLV [A117V]

Variants of: B5
Conditions: with gfap_human GFAP

Row | effect of a mutation on the interaction | Variant
8 | disrupting interaction strength | METSSKGLLTQVTQFWNLLDDLAQSDPEGYEKFIQQQLKEGKQLCAAPEPQLCLQTRILKPKEKILFINLCQWTRIPAPQSTTHPVPLTVGKPEDTTEISDAYTVIDVAYNPDVLHVAEKDQVKKNQLIQMAMKCIEEKFQFTLSHSYHITKFRIKGSIQRMKQNLMGIQTDSIDLREKMRRELTLGQIRSSTMSNPDHFPQLLLPKDQVSGKAVCLIEEISSTEIQVEMKMPAYELKIVHDHSEKPLKIELKVELPGINSVSLCDLSVSEDDLLIEVSEKYRLHLNLPKLIDTEMTTAKFIKEKSTLIITMPLV [A117V]
